Results on twelve sequences are retold here after article PMC12052159.

What all share (assay): EMSA
What all share (settings): EMSA with 5' 32P PCR fragments, MarA 1, 2 or 4 uM, PAGE at 150 V; buffer, salt, pH and temperature not given (cited method)
A general note: Mobility shift assays separate free from complexed probe on a gel.

One data set deals with T1, MarA (Escherichia coli) (UniProt P0ACH5).
T1 sequence: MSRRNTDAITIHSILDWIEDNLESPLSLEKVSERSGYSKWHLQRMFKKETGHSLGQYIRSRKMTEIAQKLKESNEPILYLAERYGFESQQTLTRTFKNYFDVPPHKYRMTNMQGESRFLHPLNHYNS

For another data set, the target named is T2, Rob (Escherichia coli) (UniProt P0ACI0).
T2 sequence: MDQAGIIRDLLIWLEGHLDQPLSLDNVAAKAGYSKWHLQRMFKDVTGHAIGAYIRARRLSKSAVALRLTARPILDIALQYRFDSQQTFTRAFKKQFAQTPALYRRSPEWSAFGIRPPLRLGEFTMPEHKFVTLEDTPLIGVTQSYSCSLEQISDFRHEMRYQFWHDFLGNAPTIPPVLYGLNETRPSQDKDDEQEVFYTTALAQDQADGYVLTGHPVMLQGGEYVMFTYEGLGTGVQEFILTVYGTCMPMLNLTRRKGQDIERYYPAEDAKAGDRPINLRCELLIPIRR

The next data set concerns the target T3, SoxS (Escherichia coli) (UniProt P0A9E2).
T3 sequence: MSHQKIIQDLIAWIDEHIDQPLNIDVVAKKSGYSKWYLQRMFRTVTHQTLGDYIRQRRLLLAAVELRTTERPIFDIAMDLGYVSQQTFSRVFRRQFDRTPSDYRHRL

Consider “GCCCGAAGCTTCATATCAATCCTGTTTTTCAACCTATTCGGGCAATTGTATGTATTGTCGCATTTTTTCGCCCGCAACCAAAATTTGTGGCTGAAGACTGGGCGAAATTGCCGCGCTTGTAAATAACAAATAATTTTTAATGCGCAAATGTAGCGTAAAATGTGTGGATGTTAATTATCGATAATACATATATCATGCCGCGGATTTTTACTTTCCCATCTCGCAGGAACCGTACACCATGG / AATTCCATGGTGTACGGTTCCTGCGAGATGGGAAAGTAAAAATCCGCGGCATGATATATGTATTATCGATAATTAACATCCACACATTTTACGCTACATTTGCGCATTAAAAATTATTTGTTATTTACAAGCGCGGCAATTTCGCCCAGTCTTCAGCCACAAATTTTGGTTGCGGGCGAAAAAATGCGACAATACATACAATTGCCCGAATAGGTTGAAAAACAGGATTGATATGAAGCTTCGGGC [lpxLmut1 regulatory region]”, for which the binding entry with MarA (Escherichia coli) is “binds more weakly”.

In the case of “GCCCGAAGCTTCATGATGAGCATTCAGATAGTGGTTCACGCGCACGGGTTGCGCACCGCCGGAGTAAGGATTTACTGAGGCTAGCGACGCCATCATAACGAGCAAAAAGTGCGATCGTCAAAGGAGAATCGTGAGGAAATGCTGCATTGCTGACATTTACGCCG / AATTCGGCGTAAATGTCAGCAATGCAGCATTTCCTCACGATTCTCCTTTGACGATCGCACTTTTTGCTCGTTATGATGGCGTCGCTAGCCTCAGTAAATCCTTACTCCGGCGGTGCGCAACCCGTGCGCGTGAACCACTATCTGAATGCTCATCATGAAGCTTCGGGC [pbpG regulatory region]”, the binding result with MarA (Escherichia coli) was “binds”.

Take “GCCCGAAGCTTCATGATGAGCATTCAGATAGTGGTTCACGCGCACGGGTTGCGCACCGCCGGAGTAAGGATTTACTGAGGCTAGCGACGCCATCATAACGAGCAAAAAGACAGATCGTCAAAGGAGAATCGTGAGGAAATGCTGCATTGCTGACATTTACGCCG / AATTCGGCGTAAATGTCAGCAATGCAGCATTTCCTCACGATTCTCCTTTGACGATCTGTCTTTTTGCTCGTTATGATGGCGTCGCTAGCCTCAGTAAATCCTTACTCCGGCGGTGCGCAACCCGTGCGCGTGAACCACTATCTGAATGCTCATCATGAAGCTTCGGGC [pbpGmut regulatory region]”: the binding result with MarA (Escherichia coli) was “no binding”.

On to “AATTCCATGGTGTACGGTTCCTGCGAGATGGGAAAGTAAAAATCCGCGGCATGATATAGCAATTATCGATAATTAACATCCACACATTTTACGCTACATTTGCGCATTAAAAATTATTTGTTATTTACAAGCGCGGCAAGGGCCGCCAGTCTTCAGCCACAAATTTTGGTTGCGGGCGAAAAAATGCGACAATACATACAATTGCCCGAATAGGTTGAAAAACAGGATTGATATGAAGCTTCGGGC / GCCCGAAGCTTCATATCAATCCTGTTTTTCAACCTATTCGGGCAATTGTATGTATTGTCGCATTTTTTCGCCCGCAACCAAAATTTGTGGCTGAAGACTGGCGGCCCTTGCCGCGCTTGTAAATAACAAATAATTTTTAATGCGCAAATGTAGCGTAAAATGTGTGGATGTTAATTATCGATAATTGCTATATCATGCCGCGGATTTTTACTTTCCCATCTCGCAGGAACCGTACACCATGG [lpxLmut3 regulatory region]”, for which the binding result with MarA (Escherichia coli) is recorded as “binds”.

As for “GCCCGAAGCTTCATATCAATCCTGTTTTTCAACCTATTCGGGCAATTGTATGTATTGTCGCATTTTTTCGCCCGCAACCAAAATTTGTGGCTGAAGACTGGGCGAAATTGCCGCGCTTGTAAATAACAAATAATTTTTAATGCGCAAATGTAGCGTAAAATGTGTGGATGTTAATTATCGATAATTGCTATATCATGCCGCGGATTTTTACTTTCCCATCTCGCAGGAACCGTACACCATGG / AATTCCATGGTGTACGGTTCCTGCGAGATGGGAAAGTAAAAATCCGCGGCATGATATAGCAATTATCGATAATTAACATCCACACATTTTACGCTACATTTGCGCATTAAAAATTATTTGTTATTTACAAGCGCGGCAATTTCGCCCAGTCTTCAGCCACAAATTTTGGTTGCGGGCGAAAAAATGCGACAATACATACAATTGCCCGAATAGGTTGAAAAACAGGATTGATATGAAGCTTCGGGC [lpxL regulatory region]”, the binding entry in the data set with MarA (Escherichia coli), with Rob (Escherichia coli) and with SoxS (Escherichia coli) was “binds” throughout.

“GCCCGAAGCTTCATAGTAAATAGCTGACTTATGGATGTGCTGGGGATTCTATGTATTTAGCTGTGGCTTTACCATTACTTTTCCCGTTTTTGACTTAAATAGCTTCAGTTTGGTCTGATCTGCCGCTACATCTTCATTTTTTTTGTATTTTTATGCGATTCATTGAAACTCGGCCCG / AATTCGGGCCGAGTTTCAATGAATCGCATAAAAATACAAAAAAAATGAAGATGTAGCGGCAGATCAGACCAAACTGAAGCTATTTAAGTCAAAAACGGGAAAAGTAATGGTAAAGCCACAGCTAAATACATAGAATCCCCAGCACATCCATAAGTCAGCTATTTACTATGAAGCTTCGGGC [kdtA (waaA) regulatory region]”: in the data set with MarA (Escherichia coli), the binding result was “binds”.

Turning to “AATTCATTGGCCAGAGGGTTTGGTTGGGTGAGAATGTGACGGTTTTGCCTGGAACAATTATTGGTAATGGAGTCGTAGTCGGCGCCAATTCTGTTGTTAGAGGTTCTATTCCCGAAAATACTGTCATTGCGGGAGTACCAGCAAAAATCATAAAGAAATACAATCATGAGACCAAATTATGAAGCTTCGGGC / GCCCGAAGCTTCATAATTTGGTCTCATGATTGTATTTCTTTATGATTTTTGCTGGTACTCCCGCAATGACAGTATTTTCGGGAATAGAACCTCTAACAACAGAATTGGCGCCGACTACGACTCCATTACCAATAATTGTTCCAGGCAAAACCGTCACATTCTCACCCAACCAAACCCTCTGGCCAATG [wbbK regulatory region]”, in the data set with MarA (Escherichia coli), the binding result is on record as “no binding”.

Take “AATTCTGCGTAAGCAAGCTGATTAAGAATTGACTGGAATTTGGGTTTCGAGTGTGTTTGTGCTAAACTGGCCCGCCGAATGTATAGTACACTTCGGTTGGATAGGTAATTTGGCGAGATAATACGATGAAGCTTCGGGC / GCCCGAAGCTTCATCGTATTATCTCGCCAAATTACCTATCCAACCGAAGTGTACTATACATTCGGCGGGCCAGTTTAGCACAAACACACTCGAAACCCAAATTCCAGTCAATTCTTAATCAGCTTGCTTACGCAG [lpxCmut regulatory region]”: the binding result with MarA (Escherichia coli) is “binds more weakly”.

For the sequence “GCCCGAAGCTTCATCGTATTATCTCGCCAAATTACCTATCCAACCGAAGTGTACTATACATTCGGCGGGCCAGTTTAGCACAAAGAGCCTCGAAACCCAAATTCCAGTCAATTCTTAATCAGCTTGCTTACGCAG / AATTCTGCGTAAGCAAGCTGATTAAGAATTGACTGGAATTTGGGTTTCGAGGCTCTTTGTGCTAAACTGGCCCGCCGAATGTATAGTACACTTCGGTTGGATAGGTAATTTGGCGAGATAATACGATGAAGCTTCGGGC [lpxC regulatory region]”, the binding result with MarA (Escherichia coli), with Rob (Escherichia coli) and with SoxS (Escherichia coli) was “binds” each time.

Turning to “GCCCGAAGCTTCATAACTGTAACCTTCGAATTATGGAGTCAGAGACAATCTCAGACACGAATGTCTGTAATCATACCATCACATCCGAATCCCTTCAGCCCTTTACATAGAGGTGCAAGGATGCTAATTGCAACAAACTAGTTTGGGTTTTAGCTAGTCCTTCATGGCGGATGTTGGTTTTGCATGTGAATAGTGCG / AATTCGCACTATTCACATGCAAAACCAACATCCGCCATGAAGGACTAGCTAAAACCCAAACTAGTTTGTTGCAATTAGCATCCTTGCACCTCTATGTAAAGGGCTGAAGGGATTCGGATGTGATGGTATGATTACAGACATTCGTGTCTGAGATTGTCTCTGACTCCATAATTCGAAGGTTACAGTTATGAAGCTTCGGGC [waaD regulatory region]”, the binding result with MarA (Escherichia coli) was “no binding”.

“AATTCTGCAACTAAACCGTGGCACAAATGGGCAATTTATCCATCGGTAAAATACTATAAAATAGCTTTAGAAAATTCCCCCTGGAAAGATGACTCTCCACGAGATGCGAAATCAATTATTGAATTTAAAAAAAGATATAAACATCTTTTAGTGCAACATCATTATATCTCAGGAATTATAGCAGGAGTCTGTTATCTTTGCCGAAAATATTACCGTAAATAACATTTAACTGGTTTATTATGAAGCTTCGGGC / GCCCGAAGCTTCATAATAAACCAGTTAAATGTTATTTACGGTAATATTTTCGGCAAAGATAACAGACTCCTGCTATAATTCCTGAGATATAATGATGTTGCACTAAAAGATGTTTATATCTTTTTTTAAATTCAATAATTGATTTCGCATCTCGTGGAGAGTCATCTTTCCAGGGGGAATTTTCTAAAGCTATTTTATAGTATTTTACCGATGGATAAATTGCCCATTTGTGCCACGGTTTAGTTGCAG [rfaY (waaY) regulatory region]”: the binding entry in the data set with MarA (Escherichia coli), in the data set with Rob (Escherichia coli) and in the data set with SoxS (Escherichia coli) was “binds” in each case.

As for “GCCCGAAGCTTCATATCAATCCTGTTTTTCAACCTATTCGGGCAATTGTATGTATTGTCGCATTTTTTCGCCCGCAACCAAAATTTGTGGCTGAAGACTGGGCGAAATTGCCGCGCTTGTAAATAACAAATAATTTTTAATGCTGTAATGTAGCGTAAAATGTGTGGATGTTAATTATCGATAATTGCTATATCATGCCGCGGATTTTTACTTTCCCATCTCGCAGGAACCGTACACCATGG / AATTCCATGGTGTACGGTTCCTGCGAGATGGGAAAGTAAAAATCCGCGGCATGATATAGCAATTATCGATAATTAACATCCACACATTTTACGCTACATTACAGCATTAAAAATTATTTGTTATTTACAAGCGCGGCAATTTCGCCCAGTCTTCAGCCACAAATTTTGGTTGCGGGCGAAAAAATGCGACAATACATACAATTGCCCGAATAGGTTGAAAAACAGGATTGATATGAAGCTTCGGGC [lpxLmut2 regulatory region]”, in the data set with MarA (Escherichia coli), the binding result is recorded as “binds”.
